Tests used:
Test in all cases: recognition by CLDN6 CAR-T cells, non-clinical study; assay not described
CLDN3 = target: T1, CLDN3 (UniProt O15551 1-220, limits assumed)
T1 construct: also called claudin 3
T1 sequence (looked up): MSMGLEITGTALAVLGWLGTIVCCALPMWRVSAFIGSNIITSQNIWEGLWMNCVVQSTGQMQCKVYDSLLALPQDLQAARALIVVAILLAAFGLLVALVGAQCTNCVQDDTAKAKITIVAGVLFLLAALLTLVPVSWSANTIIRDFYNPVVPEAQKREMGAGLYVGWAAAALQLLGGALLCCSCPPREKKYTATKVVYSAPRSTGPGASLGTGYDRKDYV

CLDN9 = target: T2, CLDN9 (UniProt O95484 1-217, limits assumed)
T2 construct: also called claudin 9
T2 sequence (looked up): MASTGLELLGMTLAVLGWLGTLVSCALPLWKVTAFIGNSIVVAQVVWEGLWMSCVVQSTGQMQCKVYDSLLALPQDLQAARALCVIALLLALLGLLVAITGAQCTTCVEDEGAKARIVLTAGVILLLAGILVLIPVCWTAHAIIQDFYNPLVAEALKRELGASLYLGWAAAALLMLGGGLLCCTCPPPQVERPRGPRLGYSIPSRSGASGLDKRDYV

CLDN4 = target: T3, CLDN4 (UniProt O14493 1-209, limits assumed)
T3 construct: also called claudin 4
T3 sequence (looked up): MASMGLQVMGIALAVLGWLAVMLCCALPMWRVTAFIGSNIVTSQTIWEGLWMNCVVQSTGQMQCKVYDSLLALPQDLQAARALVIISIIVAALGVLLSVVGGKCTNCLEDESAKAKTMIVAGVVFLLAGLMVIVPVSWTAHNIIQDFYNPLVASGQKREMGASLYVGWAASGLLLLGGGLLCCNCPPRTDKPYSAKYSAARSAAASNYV

Measured: binding result

B1: CLDN6-CAR-CD8h-BBz (other)
chain: EVQLQQSGPELVKPGASMKISCKASGYSFTGYTMNWVKQSHGKNLEWIGLINPYNGGTIYNQKFKGKATLTVDKSSSTAYMELLSLTSEDSAVYYCARDYGFVLDYWGQGTTLTVSSGGGGSGGGGSGGGGSDIVLTQSPSIMSVSPGEKVTITCSASSSVSYMHWFQQKPGTSPKLSIYSTSNLASGVPARFSGRGSGTSYSLTISRVAAEDAATYYCQQRSNYPPWTFGGGTKLEIKRSDPATTTPAPRPPTPAPTIASQPLSLRPEACRPAAGGAVHTRGLDFACDIYIWAPLAGTCGVLLLSLVITLYCKRGRKKLLYIFKQPFMRPVQTTQEEDGCSCRFPEEEEGGCELRVKFSRSADAPAYKQGQNQLYNELNLGRREEYDVLDKRRGRDPEMGGKPRRKNPQEGLYNELQKDKMAEAYSEIGMKGERRRGKGHDGLYQGLSTATKDTYDALHMQALPPR
notes: Chimeric antigen receptor, tested on the surface of retrovirally transduced human (or murine) T cells; also called CLDN6-CAR-BBz
no binding: all assays above

Source: patent publication US20250025505A1 (BIONTECH, published 2025)
